Experimental data reported in the supplement of paper PMC10567573.

B1: OAS1 (parent)
chain: LQLGEGVEFDVLPAFDALGQLTGG

Variants of: B1
Experiment: protein stability index of a GFP-peptide fusion (GPS, HEK-293T) (PSI 1-6); higher = more stable
Details: c terminus: a fixed tail appended
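Also: lentivirally expressed fusions sorted by FACS into six bins by GFP to DsRed ratio, PSI derived from sequencing read proportions per bin multiplied by bin number.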

Point of comparison: LQLGEGVEFDVLPAFDALGILTGG [Q20I], protein stability index 2.06. Against it:
- LQLGEGVEFDVLPAFDALGQLTGY [G24Y] — higher, 2.55
- LQLGEGVEFGVLPAFDALGQLTGG [D10G] — lower, 2.03
- LQLGEGVEFHVLPAFDALGQLTGG [D10H] — lower, 1.5
- LQLGEGVEFTVLPAFDALGQLTGG [D10T] — lower, 1.36
- LQLGEGVEFKVLPAFDALGQLTGG [D10K] — lower, 1.99
- LQLGEGVEFFVLPAFDALGQLTGG [D10F] — lower, 1.64
- LQLGEGVEFDVLPAKDALGQLTGG [F15K] — higher, 4.1
- LQLGEGVEFDVLPALDALGQLTGG [F15L] — higher, 2.48
- LQLGEGVEFDVLPAMDALGQLTGG [F15M] — lower, 1.96
- LQLGEGVEFDVLPASDALGQLTGG [F15S] — higher, 2.73
- LQLGEGVEFDVLPAYDALGQLTGG [F15Y] — lower, 1.47
- LQLGEGVEFDVLPARDALGQLTGG [F15R] — higher, 2.74
- LQLGEGVEFDVLPATDALGQLTGG [F15T] — higher, 3.48
- LQLGEGVEFDVLPAVDALGQLTGG [F15V] — lower, 1.65
- LQLGEGVEFDVLPAWDALGQLTGG [F15W] — lower, 1.22
- LQLGEGVEFDVLPNFDALGQLTGG [A14N] — lower, 1.86
- LQLGEGVEFDVLPDFDALGQLTGG [A14D] — lower, 1.67
- LQLGEGVEFDVLPCFDALGQLTGG [A14C] — lower, 1.37
- LQLGEGVEFDVLPSFDALGQLTGG [A14S] — lower, 1.55
- LQLGEGVEFDVLPHFDALGQLTGG [A14H] — lower, 1.58
- LQLGEGVEFDVLPVFDALGQLTGG [A14V] — lower, 1.19
- LQLGEGVEFDVLPKFDALGQLTGG [A14K] — lower, 1.61
- LQLGEGVEFDVLPIFDALGQLTGG [A14I] — lower, 1.48
- LQLGEGVEFDVLPPFDALGQLTGG [A14P] — lower, 2.02
- LQLGEEVEFDVLPAFDALGQLTGG [G6E] — higher, 2.38
- LQLGERVEFDVLPAFDALGQLTGG [G6R] — higher, 2.33
- LQLGEWVEFDVLPAFDALGQLTGG [G6W] — lower, 1.74
- LQLGEQVEFDVLPAFDALGQLTGG [G6Q] — higher, 2.51
- LQLGETVEFDVLPAFDALGQLTGG [G6T] — lower, 1.55
- LQLGEPVEFDVLPAFDALGQLTGG [G6P] — higher, 2.94
- LQLGEGVEFDVLPAFDALCQLTGG [G19C] — higher, 2.11
- LQLGEGVEFDVLPAFDALPQLTGG [G19P] — lower, 1.79
- LQLGEGVEFDVLPAFDALDQLTGG [G19D] — higher, 2.91
- LQLGEGVEFDVLPAFDALVQLTGG [G19V] — lower, 1.45
- LQLGEGVEFDVLPAFDALKQLTGG [G19K] — higher, 2.3
- LQLGEGVEFDVLPAFDALFQLTGG [G19F] — lower, 1.76
- LQLGEGVEFDVLPAFDALNQLTGG [G19N] — lower, 2
- LQLGEGVEFDVLPAFDALAQLTGG [G19A] — lower, 1.77
- NQLGEGVEFDVLPAFDALGQLTGG [L1N] — higher, 4.18
- IQLGEGVEFDVLPAFDALGQLTGG [L1I] — lower, 1.04
- HQLGEGVEFDVLPAFDALGQLTGG [L1H] — higher, 4.33
- GQLGEGVEFDVLPAFDALGQLTGG [L1G] — higher, 4.46
- AQLGEGVEFDVLPAFDALGQLTGG [L1A] — higher, 3.26
- DQLGEGVEFDVLPAFDALGQLTGG [L1D] — higher, 4.96
- RQLGEGVEFDVLPAFDALGQLTGG [L1R] — higher, 4.01
- TQLGEGVEFDVLPAFDALGQLTGG [L1T] — higher, 3.33
- SQLGEGVEFDVLPAFDALGQLTGG [L1S] — higher, 3.65
- LQLGEGVEFDVLPAFDALGCLTGG [Q20C] — lower, 1.29
- LQLGEGVEFDVLPAFDALGPLTGG [Q20P] — lower, 1.78
- LQLGEGVEFDVLPAFDALGGLTGG [Q20G] — lower, 1.82
- LQLGEGVEFDVLPAFDALGYLTGG [Q20Y] — higher, 2.09
- LQLGEGVEFDVLPAFDALGNLTGG [Q20N] — higher, 2.28
- LQLGEGVEFDVLPAFDALGKLTGG [Q20K] — lower, 1.9
- LQLGEGVEFDVLPAFDALGVLTGG [Q20V] — lower, 2.01
- LQLGEGVEFDVLPAFDALGSLTGG [Q20S] — lower, 1.77
- LQLGEGVEFDVLPAFDALGTLTGG [Q20T] — lower, 1.76
- LQLGEGVEFDVLPAFDALGQLFGG [T22F] — higher, 2.69
- LQLGEGVEFDVLPAFDALGQLGGG [T22G] — lower, 2.05
- LQLGEGVEFDVLPAFDALGQLYGG [T22Y] — lower, 1.08
- LQLGEGVEFDVLPAFDALGQLEGG [T22E] — higher, 2.75
- LQLGEGVEFDVLPAFDALGQLPGG [T22P] — lower, 1.9
- LQLGEGVEFDVLPAFDALGQLAGG [T22A] — higher, 3.87
- LQLGEGVEFDVLPAFDALGQLMGG [T22M] — lower, 1.07
- LQLGEGVEFDVLPAFDALGQLQGG [T22Q] — lower, 1.14
- LQLGEGVEFDVLPAFDALGQLSGG [T22S] — lower, 1.73
- LQLGEGVEFDVLPAFDALGQLDGG [T22D] — lower, 1.97
- LQLGEGVEFDVLPAFDALGQDTGG [L21D] — higher, 3.43
- LQLGEGVEFDVLPAFDALGQVTGG [L21V] — higher, 2.22
- LQLGEGVEFDVLPAFDALGQYTGG [L21Y] — lower, 1.51
- LQLGEGVEFDVLPAFDALGQETGG [L21E] — higher, 2.5
- LQLGEGVEFDVLPAFDALGQFTGG [L21F] — higher, 2.53
- LQLGEGVEFDVLPAFDALGQATGG [L21A] — higher, 2.22
- LQLGEGVEFDVLPAFDALGQTTGG [L21T] — lower, 1.89
- LQLGEGVEFDVLPAFDALGQITGG [L21I] — higher, 2.91
- LQLGEGVEFDVLPAFDALGQGTGG [L21G] — higher, 2.36
- LQLGEGVEFDVLPAFDALGQSTGG [L21S] — the same, 2.06
- LALGEGVEFDVLPAFDALGQLTGG [Q2A] — higher, 3.5
- LILGEGVEFDVLPAFDALGQLTGG [Q2I] — higher, 2.81
- LGLGEGVEFDVLPAFDALGQLTGG [Q2G] — lower, 1.74
- LCLGEGVEFDVLPAFDALGQLTGG [Q2C] — lower, 1.04
- LNLGEGVEFDVLPAFDALGQLTGG [Q2N] — higher, 2.41
- LQLGEGVEFDVLPAFDRLGQLTGG [A17R] — lower, 2.05
- LQLGEGVEFDVLPAFDFLGQLTGG [A17F] — higher, 3.94
- LQLGEGVEFDVLPAFDQLGQLTGG [A17Q] — lower, 1.61
- LQLGEGVEFDVLPAFDMLGQLTGG [A17M] — higher, 2.14
- LQLGEGVEFDVLPAFDILGQLTGG [A17I] — lower, 1.53
- LQLGEGVEFDVLPAFDVLGQLTGG [A17V] — higher, 2.86
- LQLGEGVEFDVLPAFDSLGQLTGG [A17S] — lower, 1.84
- LQLGEGVEFDVLPAFDYLGQLTGG [A17Y] — higher, 2.48
- LQLGEGVEFDVLPAFDGLGQLTGG [A17G] — lower, 2.01
- LQLGEGVEFDVLPAFDLLGQLTGG [A17L] — lower, 1.9
- LQLGEGVEFDVLPAFDNLGQLTGG [A17N] — higher, 2.28
- LQLGEGVEFDVLPAFDWLGQLTGG [A17W] — higher, 3.13
